Results taken from patent publication US10883980 (TRUSTEES OF PRINCETON UNIVERSITY, dated 2021).

B1: ORF3-HA (HA-tagged wild-type HEV ORF3 protein, Kernow C1/p6) (other)
chain: MGSPCALGLFCCCSSCFCLCCPRHRPASRLAVVVGGAAAVPAVVSGVTGLILSPSPSPIFIQPTPSPPISFHNPGLELALGSRPAPLAPLGVTSPSAPPLPPAVDLPQLGLRR
notes: Expressed by lentivirus in HepG2C3A cells and tested in cell lysate; also called HEV ORF3-HA; HA-tagged ORF3; not shown: HA tag; the name ORF3-HA puts it at the C-terminus
B2: ORF3[IFI59-61AAA], HA-tagged (other)
chain: MGSPCALGLFCCCSSCFCLCCPRHRPASRLAVVVGGAAAVPAVVSGVTGLILSPSPSPAAAQPTPSPPISFHNPGLELALGSRPAPLAPLGVTSPSAPPLPPAVDLPQLGLRR
notes: Alanine triplet mutant of Kernow C1/p6 ORF3; also called ORF3[IF159-61AAA]; not shown: HA tag

Columns and labels:
[1] = molecular target: the molecule itself; test: Western blot (anti-HA) of lysates from cells expressing ORF3-HA; self-association
[2] = molecular target: the molecule itself; test: Western blot (anti-HA) of HepG2C3A lysates; self-association

Protein	binding result [1]	binding result [2]
B1	binds	–
B2	–	binds
